We go through 46 sequences from the supplement of paper PMC11780869.

The series relates to Bacillus subtilis. As to the kind of experiment: cleaved RNA product abundance (RNA/gDNA barcode ratio) relative to median wild-type variant (ratio to wild type); higher = more accumulation of the downstream cleavage product. As to conditions: experiment (reporter, strain, medium): exp 8a: truncated aprE reporter, strain BJT201 with 2% xylose (RNase J1 expressed); cleavage site: glnRA (positions -5 to +31 mutated). In a few lines: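 Oligos with a 9% error rate were used to build barcoded, mutagenized RNase Y cleavage-site windows within truncated aprE or tetM reporter mRNAs, which were integrated into the B. subtilis chromosome. Cultures were grown in LB at 37°C between OD600 0.0003 and 0.3. Cleaved RNA was gel-selected, reverse transcribed and barcode-sequenced, as were genomic DNA barcodes, and UMIs were collapsed. Cleaved product abundance is the scaled RNA:gDNA barcode ratio, with the median construct carrying the unmutated site as reference.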
As to “CGACATGTCCCGCTTCTTTCATTACTCCGTTAGCAACTGTTTTGCTATCTACATTTACCTTTTAAGAGGAGGAAT”, the “cleaved RNA product abundance” value amounted to 0.0823. With “CGACATGTCCCGCTTCTTTCATTACTCCGTTAGCAACTGTTTTGCTATGTACATTTACCTTTTAAGAGGAGGAAT”, the “cleaved RNA product abundance” value stood at 0.117. Take “CGACATGTCCCGCTTCTTTCATTACTCCGTTAGCAACTGTTTTGCTATTTACATTTACCTTTTAAGAGGAGGAAT”: the “cleaved RNA product abundance” value stood at 0.151. Take “CGACATGTCCCGCTTCTTTCATTACTCCGTTAGCAACTGTTTTGCTCTATACATTTACCTTTTAAGAGGAGGAAT”: the “cleaved RNA product abundance” value stood at 0.288. Consider “CGACATGTCCCGCTTCTTTCATTACTCCGTTAGCAACTGTTTTGCTGTATACATTTACCTTTTAAGAGGAGGAAT”, for which the “cleaved RNA product abundance” value was found to be 0.372. In the case of “CGACATGTCCCGCTTCTTTCATTACTCCGTTAGCAACTGTTTTGCTTTATACATATACCTTTTAAGAGGAGGAAT” it was 0.58; in that of “CGACATGTCCCGCTTCTTTCATTACTCCGTTAGCAACTGTTTTGGTATATACATTTACCTTTTAAGAGGAGGAAT”, 0.278.

As to “CGACATGTCCCGCTTCTTTCATTACTCCGTTAGCAACTGTTTTGTTATATACATTTACCTTTTAAGAGGAGGAAT”, the “cleaved RNA product abundance” value came to 0.573. In the case of “CGACATGTCCCGCTTCTTTCATTACTCCGTTAGCAACTGTTTTTCTATATACATTTACCTTTTAAGAGGAGGAAT” it was 0.594; in that of “CGACATGTCCCGCTTCTTTCATTACTCCGTTAGCAACTGTTTTTCTATTTACATTTACCTTTTAAGAGGAGGAAT”, 0.151.

As to “CGACATGTCCCGCTTCTTTCATTACTCCGTTAGCAACTTTTTTGCTATATACATTTACCTTTTAAGAGGAGGAAT”, the “cleaved RNA product abundance” value was 2.09. Take “CGACATGTCCCGCTTCTTTCATTACTCCGTTAGCAAGTGTTTTGCTATATACATTTACCTTTTAAGAGGAGGAAT”: the “cleaved RNA product abundance” value was 0.557. “CGACATGTCCCGCTTCTTTCATTACTCCGTTAGCAATTGTTTTGCTATATACATTTACCTTTTAAGAGGAGGAAT”: the “cleaved RNA product abundance” value came to 1.23.

For the sequence “CGACATGTCCCGCTTCTTTCATTACTCCGTTAGCAGCTGTTTTGCTATATACATTTACCTTTTAAGAGGAGGAAT”, the “cleaved RNA product abundance” value is 0.827. As for “CGACATGTCCCGCTTCTTTCATTACTCCGTTAGCTACTGTTTTGCTATATACATTTACCTTTTAAGAGGAGGAAT”, the “cleaved RNA product abundance” value came out at 0.923. In the case of “CGACATGTCCCGCTTCTTTCATTACTCCGTTAGTAACGGTTTTGCTATATACATTTACCTTTTAAGAGGAGGAAT” it was 0.281. For “CGACATGTCCCGCTTCTTTCATTACTCCGTTAGTAACTGTTTTGCTATATACATTTACCTTTTAAGAGGAGGAAT” the value was 0.482; for “CGACATGTCCCGCTTCTTTCATTACTCCGTTATCAACTGTTTTGCTATATACATTTACCTTTTAAGAGGAGGAAT”, 0.227; for “CGACATGTCCCGCTTCTTTCATTACTCCGTTATGAACTGTTTTCCTATATACATTTACCTTTTAAGAGGAGGAAT”, 0.316.

Regarding “CGACATGTCCCGCTTCTTTCATTACTCCGTTTACAACTGTTTTGCTATATACATTTACCTTTTAAGAGGAGGAAT”, the “cleaved RNA product abundance” value came out at 0.368. As to “CGACATGTCCCGCTTCTTTCATTACTCCGTTTGCAACTGTTTTGCTATATACATTTACCTTTTAAGAGGAGGAAT”, the “cleaved RNA product abundance” value came out at 0.667. As to “CGACATGTCCCGCTTCTTTCATTACTCCTTTAGCAACTGTTTTGCTATATACATTTACCTTTTAAGAGGAGGAAT”, the “cleaved RNA product abundance” value turned out to be 0.376. Regarding “CGACATGTCCCGCTTCTTTCATTACTCTGTTAGCAACTGTTTTGCTATATACATTTACCTTTTAAGAGGAGGAAT”, the “cleaved RNA product abundance” value was determined as 0.791. With “CGACATGTCCCGCTTCTTTCATTACTGCGTTAGCAACTGTTTTGCTATATACATTTACCTTTTAAGAGGAGGAAT”, the “cleaved RNA product abundance” value was determined as 1.68. In the case of “CGACATGTCCCGCTTCTTTCATTACTTCGTTAGCAACTGTTTTGCTATATACATTTACCTTTTAAGAGGAGGAAT”, the “cleaved RNA product abundance” value was found to be 1.57. “CGACATGTCCCGCTTCTTTCATTAGTCAGTTAGCAACTGTTTTGCTATATACATTTACCTTTTAAGAGGAGGAAT”: the “cleaved RNA product abundance” value stood at 0.249. On to “CGACATGTCCCGCTTCTTTCATTAGTCCGTTACCAACTGTTTTGCTATATACATTTACCTTTTAAGAGGAGGAAT”, for which the “cleaved RNA product abundance” value stood at 0.248. With “CGACATGTCCCGCTTCTTTCATTAGTCCGTTAGCAACAGTTTTGCTATATACATTTACCTTTTAAGAGGAGGAAT”, the “cleaved RNA product abundance” value is 0.968. Consider “CGACATGTCCCGCTTCTTTCATTAGTCCGTTAGCAACTGTTTTACTATATACATTTACCTTTTAAGAGGAGGAAT”, for which the “cleaved RNA product abundance” value stood at 0.548. With “CGACATGTCCCGCTTCTTTCATTAGTCCGTTAGCAACTGTTTTCCTATATACATTTACCTTTTAAGAGGAGGAAT”, the “cleaved RNA product abundance” value came to 0.352. In the case of “CGACATGTCCCGCTTCTTTCATTAGTCCGTTAGCAACTGTTTTGATATATACATTTACCTTTTAAGAGGAGGAAT”, the “cleaved RNA product abundance” value amounted to 0.542. In the case of “CGACATGTCCCGCTTCTTTCATTAGTCCGTTAGCAACTGTTTTGCTATATACATTTACCTTTTAAGAGGAGGAAT”, the “cleaved RNA product abundance” value is 0.767. For the sequence “CGACATGTCCCGCTTCTTTCATTAGTCCGTTAGCAACTGTTTTGCTATATACTTTTACCTTTTAAGAGGAGGAAT”, the “cleaved RNA product abundance” value came to 0.341. For “CGACATGTCCCGCTTCTTTCATTAGTCCGTTAGCAACTGTTTTGCTATATATATTTACCTTTTAAGAGGAGGAAT” the value was 0.842; for “CGACATGTCCCGCTTCTTTCATTAGTCCGTTAGTAACTGTTTTGCTATATACATTTACCTTTTAAGAGGAGGAAT”, 0.335; for “CGACATGTCCCGCTTCTTTCATTATACCGTTAGCAACTGTTTTGCTATATACATTTACCTTTTAAGAGGAGGAAT”, 2.04. On to “CGACATGTCCCGCTTCTTTCATTATCCCGTTAGCAACTGTTTTGCTATATACATTTACCTTTTAAGAGGAGGAAT”, for which the “cleaved RNA product abundance” value is 1.49. Turning to “CGACATGTCCCGCTTCTTTCATTATCCCGTTAGCAACTGTTTTGCTATATACTTTTACCTTTTAAGAGGAGGAAT”, the “cleaved RNA product abundance” value came to 0.41. As for “CGACATGTCCCGCTTCTTTCATTATCCGTTAGCAACTGTTTTGCTATATACATTTACCTTTTAAGAGGAGGAATT”, the “cleaved RNA product abundance” value came out at 0.941. For the sequence “CGACATGTCCCGCTTCTTTCATTATGCCGTTAGCAACTGTTTTGCTATATACATTTACCTTTTAAGAGGAGGAAT”, the “cleaved RNA product abundance” value was found to be 1.32.

As to “CGACATGTCCCGCTTCTTTCATTATTACGTTACCAACTATTTTGCTATATACATTTATCTTTTAAGAGGAGGAAT”, the “cleaved RNA product abundance” value turned out to be 0.242. “CGACATGTCCCGCTTCTTTCATTATTACGTTAGCAACCGTTTTGCTATATACATTTACCTTTTAAGAGGAGGAAT”: the “cleaved RNA product abundance” value is 1.06. With “CGACATGTCCCGCTTCTTTCATTATTACGTTAGCAACTGTTTTGCTATATACATTTACCTTTTAAGAGGAGGAAT”, the “cleaved RNA product abundance” value amounted to 1.27.

Regarding “CGACATGTCCCGCTTCTTTCATTATTCAGTTAGCAACTGTTTTGCTATATACATTTACCTTTTAAGAGGAGGAAT”, the “cleaved RNA product abundance” value was 1.38. As for “CGACATGTCCCGCTTCTTTCATTATTCCAATAGCAACTGTTTTGCTATATACATTTACCTTTTAAGAGGAGGAAT”, the “cleaved RNA product abundance” value turned out to be 0.925.

On to “CGACATGTCCCGCTTCTTTCATTATTCCATTAGCAACTGTTTTGCTATATACATTTACCTTTTAAGAGGAGGAAT”, for which the “cleaved RNA product abundance” value was determined as 1.21.
